Assay: LDH specific activity after lyophilization (colorimetric endpoint assay)
Type: biochemical
Method: Lactate dehydrogenase (LDH) was obtained from Sigma Chemicals (L1254; Lot 96H9568). Bio-Gel A15M was obtained from Bio-Rad (Cat. No. 151-1050) as a powder having a MMAD of 20-150 μm. LDH activity was measured using an endpoint, colorimetric assay (Sigma No. 500). All other reagents were obtained from Fisher Scientific and were ACS-grade or better.
The Bio-Gel A15M resin was washed with water to remove preservative and then poured into a disposable 1×10 cm column to a final column volume of approximately 5 mL. The column was equilibrated with 5 mL sodium citrate, pH 6 containing 5% (w/v) mannitol. LDH was dissolved in the same buffer at 2 mg/mL final concentration. A 5 mL sample of this solution was loaded to the column and allowed to fully penetrate.
The resin was emptied from the column and lyophilized. After lyophilization the resin was re-suspended in water and poured back into the column. The column was then eluted with a 5 mL portion of the buffer. […]
The protein concentration of each solution was determined by absorbance at 280 nm using a Hewlett-Packard UV-VIS Spectrophotometer. […] The absorbance of the color formed is inversely proportional to the LDH activity. LDH specific activity was calculated by dividing the […].

Substance: Lactate dehydrogenase [LDH]
- specific activity, % of the starting material (LDH loaded on agarose beads (Bio-Gel A15M), lyophilized, eluted, preliminary): about 40%
- specific activity, % of the starting material (LDH recovered after lyophilization from solution): 98%

From patent publication US7022313B2, “Hydrogel particle formulation” (PowderJect Research Ltd., priority 1999, dated 2006)
